2 substances from patent US20220145332 can be followed below.

For the series, the system named is hsSB (high-solubility Sleeping Beauty transposase, recombinant) (artificial). Description: cell_activity. Conditions: HeLa, 3 weeks.

Take “Venus transposon plasmid (SB LE/RE ends)”: the activity (% Venus-positive cells) (protein electroporation, 20 ug hsSB, maximum efficiency, also active in CHO and mESC) was 42.

Take “Venus transposon minicircle (SB LE/RE ends)”: the activity (% Venus-positive cells) (hsSB added to culture medium, up to 3.31% in iPSCs (FIG. 9)) is less than 12.
